B1: Dynein light chain 2, cytoplasmic (Homo sapiens), Q96FJ2 (parent)
chain: MSDRKAVIKNADMSEDMQQDAVDCATQAMEKYNIEKDIAAYIKKEFDKKYNPTWHCIVGRNFGSYVTHETKHFIYFYLGQVAILLFKSG
partner: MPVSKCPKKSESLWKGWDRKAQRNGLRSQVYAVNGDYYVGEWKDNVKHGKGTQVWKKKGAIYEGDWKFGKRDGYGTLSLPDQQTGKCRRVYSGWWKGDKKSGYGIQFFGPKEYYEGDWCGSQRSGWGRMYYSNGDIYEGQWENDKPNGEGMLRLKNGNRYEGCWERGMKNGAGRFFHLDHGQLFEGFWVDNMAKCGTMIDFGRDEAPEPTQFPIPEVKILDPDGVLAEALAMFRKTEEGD
B2: Trichoplein keratin filament-binding protein (Homo sapiens), Q9BT92 (parent)
chain: MALPTLPSYWCSQQRLNQQLARQREQEARLRQQWEQNSRYFRMSDICSSKQAEWSSKTSYQRSMHAYQREKMKEEKRRSLEARREKLRQLMQEEQDLLARELEELRLSMNLQERRIREQHGKLKSAKEEQRKLIAEQLLYEHWKKNNPKLREMELDLHQKHVVNSWEMQKEEKKQQEATAEQENKRYENEYERARREALERMKAEEERRQLEDKLQAEALLQQMEELKLKEVEATKLKKEQENLLKQRWELERLEEERKQMEAFRQKAELGRFLRHQYNAQLSRRTQQIQEELEADRRILQALLEKEDESQRLHLARREQVMADVAWMKQAIEEQLQLERAREAELQMLLREEAKEMWEKREAEWARERSARDRLMSEVLTGRQQQIQEKIEQNRRAQEESLKHREQLIRNLEEVRELARREKEESEKLKSARKQELEAQVAERRLQAWEADQQEEEEEEEARRVEQLSDALLQQEAETMAEQGYRPKPYGHPKIAWN
B3: Chorion-specific transcription factor GCMb (Homo sapiens), O75603 (parent)
chain: MPAAAVQEAVGVCSYGMQLSWDINDPQMPQELALFDQFREWPDGYVRFIYSSDEKKAQRHLSGWAMRNTNNHNGHILKKSCLGVVVCTQACTLPDGSRLQLRPAICDKARLKQQKKACPNCHSALELIPCRGHSGYPVTNFWRLDGNAIFFQAKGVHDHPRPESKSETEARRSAIKRQMASFYQPQKKRIRESEAEENQDSSGHFSNIPPLENPEDFDIVTETSFPIPGQPCPSFPKSDVYKATCDLATFQGDKMPPFQKYSSPRIYLPRPPCSYELANPGYTNSSPYPTLYKDSTSIPNDTDWVHLNTLQCNVNSYSSYERSFDFTNKQHGWKPALGKPSLVERTNHGQFQAMATRPYYNPELPCRYLTTPPPGAPALQTVITTTTKVSYQAYQPPAMKYSDSVREVKSLSSCNYAPEDTGMSVYPEPWGPPVTVTRAASPSGPPPMKIAGDCRAIRPTVAIPHEPVSSRTDEAETWDVCLSGLGSAVSYSDRVGPFFTYNNEDF
B4: KH domain-containing, RNA-binding, signal transduction-associated protein 2 (Homo sapiens), Q5VWX1 (parent)
chain: MEEEKYLPELMAEKDSLDPSFVHASRLLAEEIEKFQGSDGKKEDEEKKYLDVISNKNIKLSERVLIPVKQYPKFNFVGKLLGPRGNSLKRLQEETGAKMSILGKGSMRDKAKEEELRKSGEAKYAHLSDELHVLIEVFAPPGEAYSRMSHALEEIKKFLVPDYNDEIRQEQLRELSYLNGSEDSGRGRGIRGRGIRIAPTAPSRGRGGAIPPPPPPGRGVLTPRGSTVTRGALPVPPVARGVPTPRARGAPTVPGYRAPPPPAHEAYEEYGYDDGYGGEYDDQTYETYDNSYATQTQSVPEYYDYGHGVSEDAYDSYAPEEWATTRSSLKAPPQRSARGGYREHPYGRY
B5: Seipin (Homo sapiens), Q96G97-4 (parent)
chain: MSTEKVDQKEEAGEKEVCGDQIKGPDKEEEPPAAASHGQGWRPGGRAARNARPEPGARHPALPAMVNDPPVPALLWAQEVGQVLAGRARRLLLQFGVLFCTILLLLWVSVFLYGSFYYSYMPTVSHLSPVHFYYRTDCDSSTTSLCSFPVANVSLTKGGRDRVLMYGQPYRVTLELELPESPVNQDLGMFLVTISCYTRGGRIISTSSRSVMLHYRSDLLQMLDTLVFSSLLLFGFAEQKQLLEVELYADYRENSYVPTTGAIIEIHSKRIQLYGAYLRIHAHFTGLRYLLYNFPMTCAFIGVASNFTFLSVIVLFSYMQWVWGGIWPRHRFSLQVNIRKRDNSRKEVQRRISAHQPGPEGQEESTPQSDVTEDGESPEDPSGTEGQLSEEEKPDQQPLSGEEELEPEASDGSGSWEDAALLTEANLPAPAPASASAPVLETLGSSEPAGGALRQRPTCSSS
B6: Alpha-ketoglutarate-dependent dioxygenase alkB homolog 3 (Homo sapiens), Q96Q83 (parent)
chain: MEEKRRRARVQGAWAAPVKSQAIAQPATTAKSHLHQKPGQTWKNKEHHLSDREFVFKEPQQVVRRAPEPRVIDREGVYEISLSPTGVSRVCLYPGFVDVKEADWILEQLCQDVPWKQRTGIREDITYQQPRLTAWYGELPYTYSRITMEPNPHWHPVLRTLKNRIEENTGHTFNSLLCNLYRNEKDSVDWHSDDEPSLGRCPIIASLSFGATRTFEMRKKPPPEENGDYTYVERVKIPLDHGTLLIMEGATQADWQHRVPKEYHSREPRVNLTFRTVYPDPRGAPW
partner: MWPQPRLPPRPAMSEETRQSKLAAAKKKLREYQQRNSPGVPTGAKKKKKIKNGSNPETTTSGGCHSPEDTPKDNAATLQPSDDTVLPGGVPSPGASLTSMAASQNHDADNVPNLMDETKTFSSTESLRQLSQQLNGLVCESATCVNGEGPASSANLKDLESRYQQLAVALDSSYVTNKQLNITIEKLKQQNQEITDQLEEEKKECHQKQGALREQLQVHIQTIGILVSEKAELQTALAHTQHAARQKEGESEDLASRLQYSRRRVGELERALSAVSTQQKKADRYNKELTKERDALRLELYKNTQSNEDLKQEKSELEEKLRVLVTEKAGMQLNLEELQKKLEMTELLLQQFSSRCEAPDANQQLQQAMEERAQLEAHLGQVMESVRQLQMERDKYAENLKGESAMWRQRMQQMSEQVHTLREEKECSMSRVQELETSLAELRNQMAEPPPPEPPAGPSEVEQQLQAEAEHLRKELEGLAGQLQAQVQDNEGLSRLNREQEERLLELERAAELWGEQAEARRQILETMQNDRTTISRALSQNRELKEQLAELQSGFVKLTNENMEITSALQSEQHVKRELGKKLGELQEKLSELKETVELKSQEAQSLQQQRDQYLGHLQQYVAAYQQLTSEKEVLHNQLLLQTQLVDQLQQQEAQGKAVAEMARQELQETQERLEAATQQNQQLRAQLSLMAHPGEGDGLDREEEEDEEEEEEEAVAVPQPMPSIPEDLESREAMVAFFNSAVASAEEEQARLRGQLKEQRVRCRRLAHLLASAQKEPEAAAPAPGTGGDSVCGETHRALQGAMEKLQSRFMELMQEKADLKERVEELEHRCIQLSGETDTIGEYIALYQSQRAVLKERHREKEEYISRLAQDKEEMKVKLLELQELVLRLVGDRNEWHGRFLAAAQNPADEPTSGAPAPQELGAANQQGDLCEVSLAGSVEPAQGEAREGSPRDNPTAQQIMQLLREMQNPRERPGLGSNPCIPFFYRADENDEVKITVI
B7: Vacuolar protein-sorting-associated protein 25 (Homo sapiens), Q9BRG1 (parent)
chain: MAMSFEWPWQYRFPPFFTLQPNVDTRQKQLAAWCSLVLSFCRLHKQSSMTVMEAQESPLFNNVKLQRKLPVESIQIVLEELRKKGNLEWLDKSKSSFLIMWRRPEEWGKLIYQWVSRSGQNNSVFTLYELTNGEDTEDEEFHGLDEATLLRALQALQQEHKAEIITVSDGRGVKFF
partner: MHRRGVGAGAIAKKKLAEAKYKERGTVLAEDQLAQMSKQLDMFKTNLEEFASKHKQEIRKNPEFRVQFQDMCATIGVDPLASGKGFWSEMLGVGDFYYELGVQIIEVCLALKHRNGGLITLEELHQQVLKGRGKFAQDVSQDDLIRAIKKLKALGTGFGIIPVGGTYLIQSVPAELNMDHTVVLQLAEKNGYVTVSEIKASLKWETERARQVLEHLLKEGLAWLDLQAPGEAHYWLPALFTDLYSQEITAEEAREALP
B8: Zinc finger protein 165 (Homo sapiens), P49910 (parent)
chain: MATEPKKAAAQNSPEDEGLLIVKIEEEEFIHGQDTCLQRSELLKQELCRQLFRQFCYQDSPGPREALSRLRELCCQWLKPEIHTKEQILELLVLEQFLTILPGDLQAWVHEHYPESGEEAVTILEDLERGTDEAVLQVQAHEHGQEIFQKKVSPPGPALNVKLQPVETKAHFDSSEPQLLWDCDNESENSRSMPKLEIFEKIESQRIISGRISGYISEASGESQDICKSAGRVKRQWEKESGESQRLSSAQDEGFGKILTHKNTVRGEIISHDGCERRLNLNSNEFTHQKSCKHGTCDQSFKWNSDFINHQIIYAGEKNHQYGKSFKSPKLAKHAAVFSGDKTHQCNECGKAFRHSSKLARHQRIHTGERCYECNECGKSFAESSDLTRHRRIHTGERPFGCKECGRAFNLNSHLIRHQRIHTREKPYECSECGKTFRVSSHLIRHFRIHTGEKPYECSECGRAFSQSSNLSQHQRIHMRENLLM
B9: Zinc finger protein Aiolos (Homo sapiens), Q9UKT9 (parent)
chain: MEDIQTNAELKSTQEQSVPAESAAVLNDYSLTKSHEMENVDSGEGPANEDEDIGDDSMKVKDEYSERDENVLKSEPMGNAEEPEIPYSYSREYNEYENIKLERHVVSFDSSRPTSGKMNCDVCGLSCISFNVLMVHKRSHTGERPFQCNQCGASFTQKGNLLRHIKLHTGEKPFKCHLCNYACQRRDALTGHLRTHSVEKPYKCEFCGRSYKQRSSLEEHKERCRTFLQSTDPGDTASAEARHIKAEMGSERALVLDRLASNVAKRKSSMPQKFIGEKRHCFDVNYNSSYMYEKESELIQTRMMDQAINNAISYLGAEALRPLVQTPPAPTSEMVPVISSMYPIALTRAEMSNGAPQELEKKSIHLPEKSVPSERGLSPNNSGHDSTDTDSNHEERQNHIYQQNHMVLSRARNGMPLLKEVPRSYELLKPPPICPRDSVKVINKEGEVMDVYRCDHCRVLFLDYVMFTIHMGCHGFRDPFECNMCGYRSHDRYEFSSHIARGEHRALLK
partner: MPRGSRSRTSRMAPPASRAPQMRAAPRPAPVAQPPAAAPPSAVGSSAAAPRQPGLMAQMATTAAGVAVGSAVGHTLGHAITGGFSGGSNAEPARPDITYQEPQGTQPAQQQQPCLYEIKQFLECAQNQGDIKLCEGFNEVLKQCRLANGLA

Variants of: B1
Conditions: with morn3_human MORN3, Q6PF18

Variant	effect of a mutation on the interaction
N33S	with no effect

Variants of: B2
Conditions: with ndk7_human NME7, Q9Y5B8
Sequence of ndk7_human NME7, Q9Y5B8 (Q9Y5B8 whole entry): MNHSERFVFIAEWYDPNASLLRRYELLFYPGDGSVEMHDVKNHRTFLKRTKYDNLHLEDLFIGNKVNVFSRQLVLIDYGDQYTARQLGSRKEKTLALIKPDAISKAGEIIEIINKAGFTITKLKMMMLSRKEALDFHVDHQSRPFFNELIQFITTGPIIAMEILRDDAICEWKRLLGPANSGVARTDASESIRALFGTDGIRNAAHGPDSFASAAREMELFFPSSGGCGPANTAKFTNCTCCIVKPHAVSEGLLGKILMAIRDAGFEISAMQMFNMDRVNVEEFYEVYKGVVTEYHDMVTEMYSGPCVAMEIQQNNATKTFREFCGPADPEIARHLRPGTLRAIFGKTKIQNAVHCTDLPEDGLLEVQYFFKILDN

Variant	effect of a mutation on the interaction
E417K	with no effect
K127R	with no effect

Variants of: B2
Conditions: with KRT15, P19012
Sequence of KRT15, P19012 (P19012 whole entry): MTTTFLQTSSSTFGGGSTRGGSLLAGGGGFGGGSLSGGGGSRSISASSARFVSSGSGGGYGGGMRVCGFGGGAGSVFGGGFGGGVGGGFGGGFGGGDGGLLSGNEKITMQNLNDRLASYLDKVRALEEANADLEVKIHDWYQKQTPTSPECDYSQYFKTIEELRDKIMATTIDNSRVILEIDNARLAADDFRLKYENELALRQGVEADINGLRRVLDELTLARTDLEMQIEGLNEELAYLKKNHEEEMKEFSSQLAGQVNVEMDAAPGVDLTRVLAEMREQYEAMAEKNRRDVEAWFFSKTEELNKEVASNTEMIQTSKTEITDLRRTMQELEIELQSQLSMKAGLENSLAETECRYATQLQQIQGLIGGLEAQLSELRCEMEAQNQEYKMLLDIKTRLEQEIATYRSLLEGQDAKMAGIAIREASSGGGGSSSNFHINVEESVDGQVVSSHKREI

Variant	effect of a mutation on the interaction
R62Q	with no effect
K127R	with no effect

Variants of: B2
Conditions: with cdr2_human CDR2, Q01850
Sequence of cdr2_human CDR2, Q01850 (Q01850 whole entry): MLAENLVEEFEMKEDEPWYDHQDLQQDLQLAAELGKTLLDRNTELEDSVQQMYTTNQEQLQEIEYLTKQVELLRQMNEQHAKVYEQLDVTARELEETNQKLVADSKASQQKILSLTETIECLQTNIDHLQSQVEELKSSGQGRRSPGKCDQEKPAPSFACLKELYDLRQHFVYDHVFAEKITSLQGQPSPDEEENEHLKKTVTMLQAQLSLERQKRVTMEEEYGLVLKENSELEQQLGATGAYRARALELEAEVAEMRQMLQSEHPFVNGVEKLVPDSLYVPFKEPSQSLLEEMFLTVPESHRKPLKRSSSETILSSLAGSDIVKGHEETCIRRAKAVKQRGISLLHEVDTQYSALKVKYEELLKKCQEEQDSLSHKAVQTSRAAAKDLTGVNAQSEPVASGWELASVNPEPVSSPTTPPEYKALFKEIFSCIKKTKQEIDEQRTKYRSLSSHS

Variant	effect of a mutation on the interaction
K127R	with no effect

Variants of: B3
Conditions: with crx_human CRX

Variant	effect of a mutation on the interaction
D53N	with no effect

Variants of: B3
Conditions: with fhl3_human FHL3, Q13643
Sequence of fhl3_human FHL3, Q13643 (Q13643 whole entry): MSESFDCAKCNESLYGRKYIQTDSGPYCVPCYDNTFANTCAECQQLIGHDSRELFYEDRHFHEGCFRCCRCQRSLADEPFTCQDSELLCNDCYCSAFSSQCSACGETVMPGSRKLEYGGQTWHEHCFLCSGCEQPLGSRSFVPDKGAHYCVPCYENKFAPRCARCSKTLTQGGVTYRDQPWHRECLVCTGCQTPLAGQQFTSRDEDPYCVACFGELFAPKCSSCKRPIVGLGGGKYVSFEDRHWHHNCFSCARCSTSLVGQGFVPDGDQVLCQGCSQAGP

Variant	effect of a mutation on the interaction
D53N	with no effect

Variants of: B3
Conditions: with rbpms_human RBPMS

Variant	effect of a mutation on the interaction
D53N	with no effect

Variants of: B4
Conditions: with ews_human EWSR1, Q01844
Sequence of ews_human EWSR1, Q01844 (Q01844 whole entry): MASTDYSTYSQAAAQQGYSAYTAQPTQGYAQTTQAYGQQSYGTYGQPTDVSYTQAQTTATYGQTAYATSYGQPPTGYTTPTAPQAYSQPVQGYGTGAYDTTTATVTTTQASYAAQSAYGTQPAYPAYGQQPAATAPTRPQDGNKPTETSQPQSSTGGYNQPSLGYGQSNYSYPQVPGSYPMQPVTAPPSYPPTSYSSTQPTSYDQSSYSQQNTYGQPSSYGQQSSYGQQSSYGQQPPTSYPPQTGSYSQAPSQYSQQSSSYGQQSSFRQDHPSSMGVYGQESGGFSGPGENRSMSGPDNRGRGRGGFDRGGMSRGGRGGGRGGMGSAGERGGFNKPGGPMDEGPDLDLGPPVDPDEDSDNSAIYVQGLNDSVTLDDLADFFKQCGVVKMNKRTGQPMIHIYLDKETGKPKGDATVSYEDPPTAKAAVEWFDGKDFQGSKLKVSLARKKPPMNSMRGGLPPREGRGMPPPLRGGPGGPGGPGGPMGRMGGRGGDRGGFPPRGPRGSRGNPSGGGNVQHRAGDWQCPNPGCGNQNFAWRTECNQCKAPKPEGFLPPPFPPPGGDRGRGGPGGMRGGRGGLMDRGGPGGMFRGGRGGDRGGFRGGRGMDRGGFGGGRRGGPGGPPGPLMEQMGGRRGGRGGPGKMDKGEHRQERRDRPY

Variant	effect of a mutation on the interaction
P333L	with no effect

Variants of: B4
Conditions: with ptk6_human PTK6, Q13882

Variant	effect of a mutation on the interaction
P333L	with no effect

Variants of: B4
Conditions: with hbaz_human HBZ

Variant	effect of a mutation on the interaction
P333L	with no effect

Variants of: B5
Conditions: with bscl2_human BSCL2, Q96G97

Variant	effect of a mutation on the interaction
D20E	with no effect

Variants of: B5
Conditions: with tmm19_human TMEM19, Q96HH6
Sequence of tmm19_human TMEM19, Q96HH6 (Q96HH6 whole entry): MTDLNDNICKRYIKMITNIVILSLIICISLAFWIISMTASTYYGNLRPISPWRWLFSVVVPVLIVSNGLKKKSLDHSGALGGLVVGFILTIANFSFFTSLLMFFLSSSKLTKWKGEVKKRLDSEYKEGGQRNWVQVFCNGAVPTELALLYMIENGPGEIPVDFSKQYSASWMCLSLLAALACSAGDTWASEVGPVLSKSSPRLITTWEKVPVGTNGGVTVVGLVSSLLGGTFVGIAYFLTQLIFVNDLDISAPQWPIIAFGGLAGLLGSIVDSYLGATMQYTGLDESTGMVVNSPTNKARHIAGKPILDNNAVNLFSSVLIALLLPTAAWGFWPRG

Variant	effect of a mutation on the interaction
D20E	with no effect

Variants of: B6
Conditions: with goga2_human GOLGA2, Q08379

Variant	effect of a mutation on the interaction
G39C	with no effect

Variants of: B7
Conditions: with snf8_human SNF8, Q96H20

Variant	effect of a mutation on the interaction
I76V	with no effect

Variants of: B8
Conditions: with kat7_human KAT7, O95251
Sequence of kat7_human KAT7, O95251 (O95251 whole entry): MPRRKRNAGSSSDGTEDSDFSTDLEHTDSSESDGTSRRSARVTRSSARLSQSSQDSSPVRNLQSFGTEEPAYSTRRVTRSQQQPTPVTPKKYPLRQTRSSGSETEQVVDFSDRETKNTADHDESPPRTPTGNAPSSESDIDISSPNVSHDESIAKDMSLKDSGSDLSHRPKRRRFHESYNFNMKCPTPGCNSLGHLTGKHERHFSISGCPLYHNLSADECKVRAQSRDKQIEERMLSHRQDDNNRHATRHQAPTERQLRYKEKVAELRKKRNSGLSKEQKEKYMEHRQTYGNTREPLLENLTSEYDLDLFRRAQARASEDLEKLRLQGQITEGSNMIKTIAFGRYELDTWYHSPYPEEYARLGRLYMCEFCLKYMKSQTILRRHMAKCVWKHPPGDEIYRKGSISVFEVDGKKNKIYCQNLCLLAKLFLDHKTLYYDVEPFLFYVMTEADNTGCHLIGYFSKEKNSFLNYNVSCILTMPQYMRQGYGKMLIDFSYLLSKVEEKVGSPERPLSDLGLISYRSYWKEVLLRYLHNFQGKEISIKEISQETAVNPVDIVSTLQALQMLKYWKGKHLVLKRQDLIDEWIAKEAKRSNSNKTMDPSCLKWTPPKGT

Variant	effect of a mutation on the interaction
N347Y	with no effect
R69C	with no effect

Variants of: B8
Conditions: with pdli7_human PDLIM7, Q9NR12
Sequence of pdli7_human PDLIM7, Q9NR12 (Q9NR12 whole entry): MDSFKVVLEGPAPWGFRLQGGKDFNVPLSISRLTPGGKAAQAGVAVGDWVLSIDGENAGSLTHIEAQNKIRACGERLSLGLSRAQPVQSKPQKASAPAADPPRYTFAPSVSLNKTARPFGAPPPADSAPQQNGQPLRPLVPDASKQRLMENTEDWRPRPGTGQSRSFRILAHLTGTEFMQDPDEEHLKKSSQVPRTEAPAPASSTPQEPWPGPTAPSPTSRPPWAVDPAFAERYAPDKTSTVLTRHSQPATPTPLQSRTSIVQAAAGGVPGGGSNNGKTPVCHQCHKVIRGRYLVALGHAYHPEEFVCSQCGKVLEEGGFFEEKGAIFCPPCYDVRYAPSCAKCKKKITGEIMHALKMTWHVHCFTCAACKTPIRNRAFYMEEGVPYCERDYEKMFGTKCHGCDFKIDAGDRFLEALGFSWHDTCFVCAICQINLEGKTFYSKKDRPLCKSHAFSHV

Variant	effect of a mutation on the interaction
N347Y	with no effect
R69C	with no effect

Variants of: B8
Conditions: with trim1_human MID2, Q9UJV3
Sequence of trim1_human MID2, Q9UJV3 (Q9UJV3 whole entry): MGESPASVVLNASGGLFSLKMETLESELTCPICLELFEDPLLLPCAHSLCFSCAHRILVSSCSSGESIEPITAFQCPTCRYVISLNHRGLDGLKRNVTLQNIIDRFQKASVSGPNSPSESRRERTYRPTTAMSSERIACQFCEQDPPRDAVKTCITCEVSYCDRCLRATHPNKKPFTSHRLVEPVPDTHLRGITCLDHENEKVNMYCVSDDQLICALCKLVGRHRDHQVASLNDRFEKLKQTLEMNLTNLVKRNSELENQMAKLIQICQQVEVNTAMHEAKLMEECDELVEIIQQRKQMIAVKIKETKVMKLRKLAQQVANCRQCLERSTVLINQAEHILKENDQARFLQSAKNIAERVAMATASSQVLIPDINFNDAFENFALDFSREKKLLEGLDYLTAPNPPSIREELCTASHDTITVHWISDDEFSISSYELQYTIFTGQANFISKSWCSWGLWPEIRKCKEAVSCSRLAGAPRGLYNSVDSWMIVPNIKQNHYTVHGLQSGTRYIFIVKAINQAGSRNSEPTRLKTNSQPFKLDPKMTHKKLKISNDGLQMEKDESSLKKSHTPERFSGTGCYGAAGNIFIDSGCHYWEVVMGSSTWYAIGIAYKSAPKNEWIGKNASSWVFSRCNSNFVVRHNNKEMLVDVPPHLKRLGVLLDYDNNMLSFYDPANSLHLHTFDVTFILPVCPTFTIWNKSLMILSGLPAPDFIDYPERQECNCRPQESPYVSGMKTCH

Variant	effect of a mutation on the interaction
N347Y	with no effect
R69C	with no effect

Variants of: B8
Conditions: with zn446_human ZNF446, Q9NWS9
Sequence of zn446_human ZNF446, Q9NWS9 (Q9NWS9 whole entry): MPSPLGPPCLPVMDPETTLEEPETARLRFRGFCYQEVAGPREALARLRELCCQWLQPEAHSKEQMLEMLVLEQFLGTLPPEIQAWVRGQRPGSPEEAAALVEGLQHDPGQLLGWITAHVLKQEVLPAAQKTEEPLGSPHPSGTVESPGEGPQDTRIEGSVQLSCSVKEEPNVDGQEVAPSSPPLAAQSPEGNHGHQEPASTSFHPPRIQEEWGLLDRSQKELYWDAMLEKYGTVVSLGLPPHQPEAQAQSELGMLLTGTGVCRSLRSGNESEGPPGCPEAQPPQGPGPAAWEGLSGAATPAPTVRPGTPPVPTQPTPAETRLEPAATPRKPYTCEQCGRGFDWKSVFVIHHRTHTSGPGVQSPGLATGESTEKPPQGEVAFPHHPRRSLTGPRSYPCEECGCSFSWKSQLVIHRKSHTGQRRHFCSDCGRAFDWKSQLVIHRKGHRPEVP

Variant	effect of a mutation on the interaction
N347Y	with no effect
R69C	with no effect

Variants of: B9
Conditions: with chch2_human CHCHD2, Q9Y6H1

Variant	effect of a mutation on the interaction
A24V	with no effect

Reference: IntAct's records for PubMed 31515488
